Target: CD276.MG.BB.z CAR (SEQ ID NO: 12)
Test: flow cytometry, Protein L staining of T cells cultured with CD276.MG.BB.z vector supernatant; the mock-transduced panel gives 2.56

Sequence of CD276.MG.BB.z CAR (SEQ ID NO: 12) (chain, as listed by the source, form in doubt): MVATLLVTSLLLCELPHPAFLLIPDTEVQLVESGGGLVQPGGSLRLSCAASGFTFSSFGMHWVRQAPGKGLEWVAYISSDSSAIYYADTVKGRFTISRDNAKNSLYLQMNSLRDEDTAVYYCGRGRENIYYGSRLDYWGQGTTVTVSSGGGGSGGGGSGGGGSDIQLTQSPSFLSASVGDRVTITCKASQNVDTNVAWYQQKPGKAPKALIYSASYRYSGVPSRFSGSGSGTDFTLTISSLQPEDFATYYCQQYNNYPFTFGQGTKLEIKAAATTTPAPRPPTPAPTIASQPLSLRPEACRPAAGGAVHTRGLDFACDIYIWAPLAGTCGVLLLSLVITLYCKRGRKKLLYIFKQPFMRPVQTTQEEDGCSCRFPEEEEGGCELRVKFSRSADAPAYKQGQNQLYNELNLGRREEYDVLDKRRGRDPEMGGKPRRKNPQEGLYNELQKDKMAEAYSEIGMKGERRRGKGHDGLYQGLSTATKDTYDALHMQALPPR

Protein L
value of the horizontal bar in the flow cytometric histogram (Protein L staining): 54.7
